B1: HDV Ribozyme (parent)
chain: GGCCGGCAUGGUCCCAGCCUCCUCGCUGGCGCCGGCUGGGCAACAUUCCGAGGGGACCGUCCCCUCGGUAAUGGCGAAUGGGACCCA

In this data set the parent is B1. Put plainly: self-cleavage, relative activity (ratio to wild type); higher = more cleavage; co-transcriptional.
For C62G G82A, the self-cleavage turned out to be 0.267.

On to C61U G81C, for which the self-cleavage came to 0.29.

Take C61U G81U: the self-cleavage was found to be 0.273.

Turning to U60G G81C, the self-cleavage was found to be 0.268.

With U60G G81A, the self-cleavage was found to be 0.269.

Turning to C62A A87U, the self-cleavage amounted to 0.984.

On to C61G A83U, for which the self-cleavage amounted to 0.151.

As for C61G A83C, the self-cleavage stood at 0.364.

As to C62U C86A, the self-cleavage amounted to 0.82.

For C62U C86G, the self-cleavage amounted to 0.831.

For C62U C84U, the self-cleavage amounted to 0.819.

Consider C62U C84A, for which the self-cleavage stood at 1.14.

C62U C84G: the self-cleavage turned out to be 0.692.

Consider C62G G67C, for which the self-cleavage is 0.147.

Take U60G U79G: the self-cleavage was determined as 0.831.

C61U C85A: the self-cleavage was 1.07.

As to C61U C85G, the self-cleavage stood at 0.981.

For C61A A78C, the self-cleavage was 0.145.

Turning to U60G C62G, the self-cleavage was found to be 0.703.

With U60G C62A, the self-cleavage was found to be 0.886.

As for C61G A87U, the self-cleavage turned out to be 0.943.

As to C61G A87G, the self-cleavage was determined as 0.994.

On to C62U U69A, for which the self-cleavage was found to be 1.24.

Consider C61U G74U, for which the self-cleavage was 0.554.

For the variant C62G U65G, the self-cleavage is 0.32.

Take C61U C66A: the self-cleavage is 0.722.

In the case of U60G G74U, the self-cleavage came to 0.665.

As to U60C A71U, the self-cleavage came out at 0.665.

With C61G A78U, the self-cleavage stood at 0.219.

In the case of C61G A78C, the self-cleavage was 0.177.

Take U60G C64A: the self-cleavage worked out at 1.07.

On to C61G G80A, for which the self-cleavage amounted to 0.434.

For the variant C62A G67C, the self-cleavage was found to be 0.78.

Consider C62A G67U, for which the self-cleavage came to 0.464.

On to C62A G67A, for which the self-cleavage came to 0.578.

Turning to C63A A77U, the self-cleavage is 0.356.

As to C63A A77C, the self-cleavage amounted to 0.268.

As to C61G U69G, the self-cleavage was 0.831.

Turning to C61G U69A, the self-cleavage was determined as 0.789.

Take U60C C64G: the self-cleavage stood at 0.776.

For C61A G67A, the self-cleavage is 0.9.

Turning to C61A G67C, the self-cleavage came out at 0.831.

In the case of C61A G67U, the self-cleavage was 1.12.

With C61A A87C, the self-cleavage came out at 1.07.

Regarding C61A A87G, the self-cleavage was found to be 1.

In the case of C61A A87U, the self-cleavage came out at 0.978.

For C61A C75U, the self-cleavage came to 0.178.

With C61A C75G, the self-cleavage was 0.177.

With C62U G80C, the self-cleavage turned out to be 0.281.

C62U G80A: the self-cleavage turned out to be 0.348.

Regarding C62U G80U, the self-cleavage is 0.253.

Turning to C62U G76U, the self-cleavage turned out to be 1.06.

Regarding C62U G76A, the self-cleavage was found to be 1.12.

On to C61G C86A, for which the self-cleavage amounted to 1.03.

With U60C A77U, the self-cleavage amounted to 0.831.

With U60G A77U, the self-cleavage was 0.237.

For U60G A77C, the self-cleavage came to 0.227.

For the variant C62G C85G, the self-cleavage is 0.911.

With C61A G73U, the self-cleavage was found to be 0.353.

As for C61A G73A, the self-cleavage was found to be 0.641.

Regarding C61G U65G, the self-cleavage is 0.72.

Turning to U60G A87C, the self-cleavage came to 0.831.

As for U60G A87G, the self-cleavage came to 0.921.

For the variant C62U U72A, the self-cleavage was found to be 0.441.

On to C62U U72G, for which the self-cleavage was 0.649.

Regarding C62A A70U, the self-cleavage worked out at 0.955.

In the case of C61A G74A, the self-cleavage was 0.561.

For C61A G74U, the self-cleavage came to 0.63.

In the case of U60G G82U, the self-cleavage stood at 0.309.

Turning to U60G G82C, the self-cleavage was 0.133.

With U60C C85G, the self-cleavage amounted to 0.965.

In the case of C61G U79A, the self-cleavage was determined as 0.739.

For the variant C61G U79C, the self-cleavage was determined as 0.499.

On to U60C G80A, for which the self-cleavage was 0.386.

Regarding C62U G81C, the self-cleavage is 0.215.

As for C62U G81U, the self-cleavage is 0.529.

On to C62U A71G, for which the self-cleavage was 0.997.

As to C62U A71C, the self-cleavage amounted to 0.812.

Regarding U60C U72A, the self-cleavage worked out at 0.755.

Take U60C U72G: the self-cleavage was 0.767.

Turning to C61A U79G, the self-cleavage amounted to 1.14.

With C61A U79A, the self-cleavage is 0.642.

For the variant C62U C64A, the self-cleavage came to 0.845.

For the variant C62U C64G, the self-cleavage amounted to 0.482.

With C62U C64U, the self-cleavage worked out at 0.796.

Regarding C62A C63U, the self-cleavage came out at 0.831.

On to C61G G76C, for which the self-cleavage stood at 0.967.

Take C62U G73C: the self-cleavage was 0.354.

Regarding C62A A83G, the self-cleavage amounted to 0.683.

With C62A A83U, the self-cleavage stood at 0.494.

On to U60G U65G, for which the self-cleavage came to 0.883.

As to C61U A78C, the self-cleavage came out at 0.182.

On to C61G A70G, for which the self-cleavage stood at 0.844.

For the variant C63A A83G, the self-cleavage was found to be 0.712.

C61U U72A: the self-cleavage was 0.703.

On to C61U U72C, for which the self-cleavage was found to be 0.356.

In the case of U60G C63U, the self-cleavage turned out to be 0.982.

In the case of U60G C63G, the self-cleavage amounted to 0.293.

As to C61U G80C, the self-cleavage stood at 0.115.

In the case of C61G, the self-cleavage stood at 0.986.

On to C61U, for which the self-cleavage came out at 1.01.

As to C61A, the self-cleavage stood at 1.02.

For the variant C62G C66G, the self-cleavage was found to be 0.249.

As for C62A G80C, the self-cleavage was 0.0594.

As to C62A G80A, the self-cleavage is 0.282.

Regarding C61U C63G, the self-cleavage stood at 0.243.

For C61U C63A, the self-cleavage stood at 0.758.

Take C61U U79A: the self-cleavage was determined as 0.88.

Regarding C61G G81U, the self-cleavage was determined as 0.358.

For C62U C85U, the self-cleavage amounted to 0.964.

For the variant C62U C85G, the self-cleavage came to 0.892.

As for C62U C85A, the self-cleavage is 0.847.

As to C62G A70C, the self-cleavage was 0.554.

On to C62G A70G, for which the self-cleavage came out at 0.578.

As to C61A A83U, the self-cleavage was determined as 0.47.

With C61U G68U, the self-cleavage was determined as 0.95.

Regarding C61U G68C, the self-cleavage was 0.581.

C62U A78G: the self-cleavage is 0.475.

For the variant C62U U65A, the self-cleavage was 1.08.

For the variant C61A C62A, the self-cleavage turned out to be 0.904.

On to C62U A77U, for which the self-cleavage is 0.429.

As for C62G U72A, the self-cleavage was determined as 0.467.

Take C62G U72C: the self-cleavage was found to be 0.525.

Regarding C62G U72G, the self-cleavage amounted to 0.277.

Take C61U U69C: the self-cleavage came out at 0.972.

With C61U U69A, the self-cleavage is 0.914.

Consider C62A G76A, for which the self-cleavage amounted to 1.13.

On to C61A G68A, for which the self-cleavage was 1.08.

U60G G80C: the self-cleavage is 0.141.

For U60G G80A, the self-cleavage was found to be 0.286.

Regarding C61G C85G, the self-cleavage came out at 0.906.

On to C61G C85U, for which the self-cleavage was 1.04.

In the case of C61G C85A, the self-cleavage turned out to be 0.935.

For C62G C84G, the self-cleavage stood at 0.482.

Turning to C61G G82C, the self-cleavage came to 0.233.

For the variant C61G G82A, the self-cleavage is 0.284.

For C62A U72G, the self-cleavage amounted to 0.617.

Turning to C62A U72A, the self-cleavage turned out to be 0.54.

Consider C62A U72C, for which the self-cleavage is 0.38.

As to U60C G67A, the self-cleavage is 0.776.

Consider U60C G68A, for which the self-cleavage turned out to be 0.81.

As for U60C G68C, the self-cleavage was determined as 0.755.

For the variant U60C G68U, the self-cleavage came to 1.2.

On to C61G A77G, for which the self-cleavage worked out at 0.831.

For the variant C61G A77C, the self-cleavage is 0.203.

Regarding U60C U69G, the self-cleavage came out at 0.95.

Regarding C61G C62G, the self-cleavage is 1.05.

Turning to C62A C86A, the self-cleavage turned out to be 1.01.

Turning to C61U A70C, the self-cleavage turned out to be 0.892.

With C61U A70G, the self-cleavage was 1.01.

For C61A C84U, the self-cleavage was found to be 0.831.

For the variant C61A C84A, the self-cleavage came out at 0.831.

For the variant U60G A83G, the self-cleavage is 0.712.

As to U60G A83U, the self-cleavage worked out at 0.415.

With C63A C66A, the self-cleavage was found to be 0.302.

With C63A C66G, the self-cleavage was 0.494.

For the variant U60G G76A, the self-cleavage is 1.08.

Regarding C61G G74U, the self-cleavage was 0.466.

In the case of C63A A87G, the self-cleavage came to 0.946.

With C63A A87C, the self-cleavage was 1.

With C63A A87U, the self-cleavage was determined as 1.03.

Take U60C G82C: the self-cleavage came out at 0.269.

As for U60C G82A, the self-cleavage was determined as 0.427.

For the variant C62G G68C, the self-cleavage is 0.196.

For C61U C75A, the self-cleavage is 0.201.

With C61U C75U, the self-cleavage worked out at 0.254.

For the variant C61U C75G, the self-cleavage worked out at 0.151.

The values above are taken from the RNAGym collection of RNA variant scans (doi:10.7554/elife.80360).
